In the assay the target is T1, human FLT3 (hFLT3) (human, UniProt P36888 27-543).
T1 construct: also called huFlt3; Fms-Like Tyrosine Kinase 3
T1 sequence (looked up): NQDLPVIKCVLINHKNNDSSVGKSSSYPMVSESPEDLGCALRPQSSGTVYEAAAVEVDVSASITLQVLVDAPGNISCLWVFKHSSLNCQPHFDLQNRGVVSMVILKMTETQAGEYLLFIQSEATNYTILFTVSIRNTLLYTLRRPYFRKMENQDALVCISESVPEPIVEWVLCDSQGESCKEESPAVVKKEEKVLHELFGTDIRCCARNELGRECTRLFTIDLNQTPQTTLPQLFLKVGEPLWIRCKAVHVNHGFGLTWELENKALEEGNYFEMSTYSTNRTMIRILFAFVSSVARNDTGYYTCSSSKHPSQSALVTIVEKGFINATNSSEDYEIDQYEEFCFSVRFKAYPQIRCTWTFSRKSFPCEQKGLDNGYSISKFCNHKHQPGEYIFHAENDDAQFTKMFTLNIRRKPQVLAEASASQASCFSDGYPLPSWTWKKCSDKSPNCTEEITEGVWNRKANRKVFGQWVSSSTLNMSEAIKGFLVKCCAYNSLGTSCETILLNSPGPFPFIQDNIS
Put plainly: SPR (Biacore T200), 37 C; IgG captured on anti-human Fc, hFLT3 as analyte. The procedure:
All experiments were performed on a Biacore T200 surface Plasmon resonance biosensor (GE Lifesciences, Piscataway N.J.).
The sensor chip preparation was performed at 25° C. with a running buffer of 10 mM HEPES, 150 mM NaCl, 0.05% (v/v) Tween-20, pH 7.4. An anti-human Fc sensor chip was made by activating all flow cells of a Biacore CM4 sensor chip with a 1:1 (v/v) mixture of 400 mM EDC and 100 mM NHS for 7 minutes, at a flow rate of 10 μL/min. An anti-human Fc reagent (Goat Anti-Human IgG Fc, Southern Biotech Catalog #2081-01) was diluted to 30 μg/mL in 10 mM Sodium Acetate pH 4.5 and injected on all flow cells for 7 minutes at 20 μL/min. All flow cells were blocked with 100 mM ethylenediamine in 150 mM Borate buffer pH 8.5 for 7 minutes at 10 μL/min.
The experiments were performed at 37° C. using a running buffer of 10 mM HEPES, 150 mM NaCl, 0.05% (v/v) Tween-20, pH 7.4, 1 mg/mL BSA. FLT3 antibodies were captured from undiluted supernatants onto downstream flow cells (flow cells 2, 3 and 4) at a flow rate of 10 μL/min for 1 minute. Different antibodies were captured on each flow cell. Flow cell 1 was used as a reference surface. Following capture of FLT3 antibodies, analyte (buffer, hFLT3) was injected at 30 μL/min on all flow cells for two minutes. After the analyte injection, dissociation was monitored for 10 minutes followed by regeneration of all flow cells with three 1-minute injections of 75 mM Phosphoric Acid. For each captured FLT3 antibody, the following analyte injections were performed: buffer, 11 nM hFLT3, 33 nM hFLT3, 100 nM hFLT3 and 300 nM hFLT3. Buffer cycles were collected for each captured FLT3 antibody for double-referencing purposes (double-referencing as described in Myszka, D. G. Improving biosensor analysis. J. Mol. Recognit. 12, 279-284 (1999)). The double-referenced sensorgrams were fit globally to a simple 1:1 Langmuir with mass transport binding model.

B1: P3A1 (IgG format) (antibody, V domains shown)
VH: QVQLVQSGAEVKKPGSSVKVSCKASGGTFSSYDISWVRQAPGQGLEWMGGIIPVSGRANYAQKFQGRVTITTDKSTSTAYMELSSLRSEDTAVYYCARVRPTYWPLDYWGQGTLVTVSS
VL: not shown
notes: IgG format, captured by anti-human Fc
The molecule B1 returned an equilibrium dissociation constant (Kd) of 64 nM, a dissociation rate constant (koff) of 0.006 s⁻¹, a kon of 95000 M⁻¹ s⁻¹ and a t1/2 of 1.9 min.

B2: P5F7 (IgG format) (antibody, V domains shown)
VH: EVQLLESGGGLVQPGGSLRLSCAASGFTFSSYAMNWVRQAPGKGLEWVSSISGGGRSTYYADSVKGRFTISRDNSKNTLYLQMNSLRAEDTAVYYCARDLSPSDVGWGYGFDIWGQGTLVTVSS
VL: EIVLTQSPATLSLSPGERATLSCRASQSVSSNLAWYQQKPGQAPRLLIYDTFTRATGIPARFSGSGSGTDFTLTISRLEPEDFAVYYCQQYGSSPPTFGQGTRLEIK
notes: IgG format, captured by anti-human Fc; the VLs differ at the N-terminus; the first entry is used
On to B2, for which the Kd stood at 0.24 nM, the off-rate constant (koff) was 0.000152 s⁻¹, the kon was determined as 636000 M⁻¹ s⁻¹ and the t1/2 stood at 76 min.

B3: P4H11 (IgG format) (antibody, V domains shown)
VH: EVQLLESGGGLVQPGGSLRLSCAASGFTFSSYAMNWVRQAPGKGLEWVSSISGGGRSTYYADSVKGRFTISRDNSKNTLYLQMNSLRAEDTAVYYCARDLSPSDVGWGYGFDIWGQGTLVTVSS
VL: EIVLTQSPGTLSLSPGERATLSCRASQSVSNTYLAWYQQKPGQAPRLLIYDTSSRATGIPDRFSGSGSGTDFTLTISRLEPEDFAVYYCQQYGSSLTFGQGTKVEIK
notes: as for B1
In turn, B3 returned an equilibrium dissociation constant (Kd) of 233 nM, a koff of 0.0144 s⁻¹, an on-rate constant (kon) of 61800 M⁻¹ s⁻¹ and a t1/2 of 1 min.

B4: P15F7 (IgG format) (antibody, V domains shown)
VH: EVQLLESGGGLVQPGGSLRLSCAASGFTFNNYAMNWVRQAPGKGLEWVSVISGSGGTTYYADSVKGRFTISRDNSKNTLYLQMNSLRAEDTAVYYCASGIWDLRYWGQGTLVTVSS
VL: DIQMTQSPSSLSASVGDRVTITCRASQSISTYLNWYQQKPGKAPKLLIYAASNLQSGVPSRFSGSGSGTDFTLTISSLQPEDFATYYCQQSYSIPLTFGQGTKVEIK
notes: as for B1
B4 returned a Kd of 38 nM, a koff of 0.0055 s⁻¹, a kon of 140000 M⁻¹ s⁻¹ and a t1/2 of 2.1 min.

B5: P14G2 (IgG format) (antibody, V domains shown)
VH: EVQLLESGGGLVQPGGSLRLSCAASGFTFSNYVMNWVRQAPGKGLEWVSAISGSGATTYYADSVKGRFTISRDNSKNTLYLQMNSLRAEDTAVYYCVSGLWAGGIWGQGTLVTVSS
VL: DIQMTQSPSSLSASVGDRVTITCRASQSISSYLNWYQQKPGKAPKLLIYDASDLQRGVPSRFSGSGSGTDFTLTISSLQPEDFATYYCQQSYNTPWTFGQGTKVEIK
notes: as for B1
In the case of B5, the Kd was found to be 8 nM, the koff is 0.0011 s⁻¹, the on-rate constant (kon) is 140000 M⁻¹ s⁻¹ and the t1/2 is 10.7 min.

B6: P12B6 (IgG format) (antibody, V domains shown)
VH: QVQLVQSGAEVKKPGSSVKVSCKASGGTFMSYAISWVRQAPGQGLEWMGGIIPIFGIANYAQKFQGRVTITADKSTSTAYMELSSLRSEDTAVYYCARETLIYPIPFELWGQGTLVTVSS
VL: EIVLTQSPGTLSLSPGERATLSCRASQIVSSSYLAWYQQKPGQAPRLLIYGASSRASGIPDRFSGSGSGTDFTLTISRLEPEDFAVYYCQQYGGSPYTFGQGTKVEIK
notes: as for B1
B6 returned a dissociation constant (Kd) of 84 nM, a koff of 0.009 s⁻¹, an association rate constant (kon) of 110000 M⁻¹ s⁻¹ and a t1/2 of 1.3 min.

B7: P3E10 (IgG format) (antibody, V domains shown)
VH: QVQLVQSGAEVKKPGSSVKVSCKASGGTFSSYAIQWVRQAPGQGLEWMGGIVGSWGLANYAQKFQGRVTITTDKSTSTAYMELSSLRSEDTAVYYCATSAFGELASWGQGTLVTVSS
VL: EIVLTQSPGTLSLSPGERATLSCRASQSVPSSQLAWYQQKPGQAPRLLIYDASSRATGIPDRFSGSGSGTDFTLTISRLEPEDFAVYYCQQYGSSPLTFGQGTKVEIK
notes: as for B1
B7 registered a Kd of 106 nM, a koff of 0.019 s⁻¹, a kon of 180000 M⁻¹ s⁻¹ and a t1/2 of 0.6 min.

B8: P1B11 (IgG format) (antibody, V domains shown)
VH: QVQLVQSGAEVKKPGSSVKVSCKASGGTFRSFDISWVRQAPGQGLEWMGRIIPILGYANYAQKFQGRVTITADESTSTAYMELSSLRSEDTAVYYCASDLGAPWAGYPFDPWGQGTLVTVSS
VL: EIVLTQSPGTLSLSPGERATLSCRASQSVSSSELAWYQQKPGQAPRLLIYDASSRATGIPDRFSGSGSGTDFTLTISRLEPEDFAVYYCQQYDSSPLTFGQGTKVEIK
notes: as for B1
As for B8, the Kd stood at 45 nM, the dissociation rate constant (koff) amounted to 0.0055 s⁻¹, the association rate constant (kon) is 120000 M⁻¹ s⁻¹ and the t1/2 came to 2.1 min.

B9: P1B4 (IgG format) (antibody, V domains shown)
VH: QVQLVQSGAEVKKPGSSVKVSCKASGGVFSRYALSWVRQAPGQGLEWMGGIIPMLGFANYAQKFQGRVTITADESTSTAYMELSSLRSEDTAVYYCATLDFGALDYWGQGTLVTVSS
VL: EIVLTQSPGTLSLSPGERATLSCRASQSVPNEQLAWYQQKPGQAPRLLIYDASSRATGIPDRFSGSGSGTDFTLTISRLEPEDFAVYYCQQYGSPPLTFGQGTKVEIK
notes: as for B1
The molecule B9 registered a Kd of 32 nM, an off-rate (koff) of 0.0058 s⁻¹, an on-rate constant (kon) of 180000 M⁻¹ s⁻¹ and a t1/2 of 2 min.

B10: P8B6 (IgG format) (antibody, V domains shown)
VH: QVQLVQSGAEVKKPGSSVKVSCKASGGTFSSYAVSWVRQAPGQGLEWMGGIIPIFGIANYAQKFQGRVTITADTSTSTAYMELSSLRSEDTAVYYCAIEGIGGDLRYDGYDAWGQGTLVTVSS
VL: EIVLTQSPGTLSLSPGERATLSCRASQSVSHSYLAWYQQKPGQAPRLLIYGASFRAAGIPDRFSGSGSGTDFTLTISRLEPEDFAVYYCQQYGSDPYTFGQGTKVEIK
notes: as for B1
In turn, B10 had a Kd of 2.5 nM, a koff of 0.00023 s⁻¹, a kon of 93000 M⁻¹ s⁻¹ and a t1/2 of 51 min.

B11: P1A5 (IgG format) (antibody, V domains shown)
VH: QVQLVQSGAEVKKPGSSVKVSCKASGGVFSRYALSWVRQAPGQGLEWMGGIIPMLGFANYAQKFQGRVTITADESTSTAYMELSSLRSEDTAVYYCATLDFGALDYWGQGTLVTVSS
VL: EIVLTQSPGTLSLSPGERATLSCRASQAVDSSDLAWYQQKPGQAPRLLIYDAYTRPSGIPDRFSGSGSGTDFTLTISRLEPEDFAVYYCQQYGSSPLTFGGGTKLEIK
notes: IgG format, captured by anti-human Fc; the entry printed as P1A5 is used
B11 showed an equilibrium dissociation constant (Kd) of 0.19 nM, a koff of 0.000347 s⁻¹, a kon of 1.78e+06 M⁻¹ s⁻¹ and a t1/2 of 33 min.

B12: P9F1 (IgG format) (antibody, V domains shown)
VH: EVQLLESGGGLVQPGGSLRLSCAASGFIFSSFAMSWVRQAPGKGLEWVSDISGSGASTYYADSVKGRFTISRDNSKNTLYLQMNSLRAEDTAVYYCASASGGSGSYWPYMDPWGQGTLVTVSS
VL: QSVLTQPPSASGTPGQRVTISCSGSGSNIGSNYVYWYQQLPGTAPKLLIYRNNQRPSGVPDRFSGSKSGTSASLAISGLRSEDEADYYCAAWDGSLSRPVFGTGTKLTVL
notes: as for B1
For B12, the Kd was 127 nM, the koff is 0.023 s⁻¹, the on-rate (kon) was 180000 M⁻¹ s⁻¹ and the t1/2 was determined as 0.5 min.

In general, Kd refers to the free concentration of one partner at which half of the binding sites on the other are occupied at equilibrium, for simple one-to-one binding. Higher therefore signals weaker binding. A word on the koff: it is a measure of how fast the partners let go of each other. High values mean a short-lived complex, low ones a long-lived complex. Usually kon stands for the second-order rate constant of association. Read a low kon as slower complex formation.

For the origin of these results see patent publication US20230059489A1 (Pfizer, published 2023).
